Here are results for two molecules from paper PMC8673433 (ImmunoHorizons, 2021).

Assay [1] has as its target full-length human TLR4 encoded by pBIND-TLR4 (human) (UniProt O00206). The assay can be described thus: two-hybrid.
Assay [2] concerns the target full-length human TLR4 encoded by pBIND-TLR4 (human, UniProt O00206 24-839). In words: two-hybrid.

Sequence of full-length human TLR4 encoded by pBIND-TLR4 (O00206 24-839): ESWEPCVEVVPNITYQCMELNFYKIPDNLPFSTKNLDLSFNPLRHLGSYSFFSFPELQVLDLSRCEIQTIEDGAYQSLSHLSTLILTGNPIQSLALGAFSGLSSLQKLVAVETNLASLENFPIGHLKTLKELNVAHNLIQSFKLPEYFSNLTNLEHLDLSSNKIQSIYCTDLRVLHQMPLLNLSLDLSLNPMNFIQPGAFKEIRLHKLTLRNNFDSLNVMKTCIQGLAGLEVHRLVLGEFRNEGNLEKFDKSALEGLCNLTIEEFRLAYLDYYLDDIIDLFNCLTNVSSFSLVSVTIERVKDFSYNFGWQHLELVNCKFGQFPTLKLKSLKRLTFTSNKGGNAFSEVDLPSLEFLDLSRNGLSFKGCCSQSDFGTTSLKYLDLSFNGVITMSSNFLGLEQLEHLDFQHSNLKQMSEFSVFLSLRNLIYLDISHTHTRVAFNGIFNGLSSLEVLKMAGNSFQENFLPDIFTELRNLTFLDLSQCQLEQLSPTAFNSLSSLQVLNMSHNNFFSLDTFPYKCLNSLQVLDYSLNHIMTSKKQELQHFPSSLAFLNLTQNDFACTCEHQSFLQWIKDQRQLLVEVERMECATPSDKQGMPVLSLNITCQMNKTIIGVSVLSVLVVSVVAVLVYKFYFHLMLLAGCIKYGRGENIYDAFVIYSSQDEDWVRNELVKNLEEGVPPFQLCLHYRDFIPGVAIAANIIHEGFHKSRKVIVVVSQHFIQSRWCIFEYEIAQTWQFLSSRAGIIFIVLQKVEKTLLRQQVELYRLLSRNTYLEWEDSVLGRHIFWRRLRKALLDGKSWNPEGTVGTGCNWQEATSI
Sequence of full-length human TLR4 encoded by pBIND-TLR4 (human) (O00206 24-839): as above

As to “SPA4 peptide alanine mutant NYTXXXRG-12–19→AAAXXXAA encoded by pACT (mammalian two-hybrid fusion)”, the percent binding to TLR4 relative to SPA4 peptide (RLU) in assay [1] came out at 74%.

In the case of GAFRYSDGTPVNYTNWYRGE [SPA4 peptide alanine mutant D-2→A encoded by pACT (mammalian two-hybrid fusion)], in assay [2], the “percent binding to TLR4 relative to SPA4 peptide (RLU)” value amounted to 81%.
